The test addresses full-length PcrV protein (recombinant, 1-294) (in the biotin-labeled form: PEO-maleimide activated biotin on the inserted cysteine). Description: SPR.

B1: 2A4 (antibody, V domains shown)
VH: DVQLQESGPGLVKPSQSLSLTCTVTGYSITSDYAWNWIRQFPGNKLEWMGYITYNGDTSYNPSLKSRISIARDTSKNQFFLQLNSVTTEDTATYSCAGSRNYYGAWFAYWGQGTLVTVSA
VL: DIVMTQSHKFMSTSIGDRVSINYKASQYVGTTVAWYQQKSGHSPKLLIYRASTRHTGVPDRFTGSGSGTDFTLNISNVQSEDLADYFCQQYCSSPLTFGAGTYLEVKR
In the case of B1, the dissociation constant Kd (as a rule, the concentration at which binding is half-saturated) was 0.35 nM.

B2: 1F3 (antibody, V domains shown)
VH: QVQLQQPGAELVKPGASVKLSCKASGYSFTSYWMHWVKQRPGQGLEWIGEINPSNGRTNYNEKFNTKATLTVDTSSSTAYMQLSSLTSEDSAVYYCVLYGNYVVYYTMDYWGQGTSVTVSS
VL: QIVLTQSPTIMSASLGEEITLTCSASTSVSYMEWYQQKSGTSPKILIYTTSKLASGVPSRFSGSGSGTFYSLTISSVEAEDAADYYCHQWRNYPFTFGSGTKLEIKR
As for B2, the Kd stood at 0.37 nM.

The values are drawn from patent US20110150896A1 (published 2011).
